From publication PMC7785629

B1: ABCB7 (Homo sapiens) (protein)
chain: HSAILIRPLVSVSGSGPQWRPHQLGALGTARAYQIPESLKSITWQRLGKGNSGQFLDAAKALQVWPLIEKRTCWHGHAGGGLHTDPKEGLKDVDTRKIIKAMLSYVWPKDRPDLRARVAISLGFLGGAKAMNIVVPFMFKYAVDSLNQMSGNMLNLSDAPNTVATMATAVLIGYGVSRAGAAFFNEVRNAVFGKVAQNSIRRIAKNVFLHLHNLDLGFHLSRQTGALSKAIDRGTRGISFVLSALVFNLLPIMFEVMLVSGVLYYKCGAQFALVTLGTLGTYTAFTVAVTRWRTRFRIEMNKADNDAGNAAIDSLLNYETVKYFNNERYEAQRYDGFLKTYETASLKSTSTLAMLNFGQSAIFSVGLTAIMVLASQGIVAGTLTVGDLVMVNGLLFQLSLPLNFLGTVYRETRQALIDMNTLFTLLKVDTQIKDKVMASPLQITPQTATVAFDNVHFEYIEGQKVLSGISFEVPAGKKVAIVGGSGSGKSTIVRLLFRFYEPQKGSIYLAGQNIQDVSLESLRRAVGVVPQDAVLFHNTIYYNLLYGNISASPEEVYAVAKLAGLHDAILRMPHGYDTQVGERGLKLSGGEKQRVAIARAILKDPPVILYDEATSSLDSITEETILGAMKDVVKHRTSIFIAHRLSTVVDADEIIVLDQGKVAERGTHHGLLANPHSIYSEMWHTQSSRVQNHDNPKWEAKKENISKEEERKKLQEEIVNSVKGCGNCSC
B2: ABCB7 (Homo sapiens; E433Q) (protein)
chain: HSAILIRPLVSVSGSGPQWRPHQLGALGTARAYQIPESLKSITWQRLGKGNSGQFLDAAKALQVWPLIEKRTCWHGHAGGGLHTDPKEGLKDVDTRKIIKAMLSYVWPKDRPDLRARVAISLGFLGGAKAMNIVVPFMFKYAVDSLNQMSGNMLNLSDAPNTVATMATAVLIGYGVSRAGAAFFNEVRNAVFGKVAQNSIRRIAKNVFLHLHNLDLGFHLSRQTGALSKAIDRGTRGISFVLSALVFNLLPIMFEVMLVSGVLYYKCGAQFALVTLGTLGTYTAFTVAVTRWRTRFRIEMNKADNDAGNAAIDSLLNYETVKYFNNERYEAQRYDGFLKTYETASLKSTSTLAMLNFGQSAIFSVGLTAIMVLASQGIVAGTLTVGDLVMVNGLLFQLSLPLNFLGTVYRQTRQALIDMNTLFTLLKVDTQIKDKVMASPLQITPQTATVAFDNVHFEYIEGQKVLSGISFEVPAGKKVAIVGGSGSGKSTIVRLLFRFYEPQKGSIYLAGQNIQDVSLESLRRAVGVVPQDAVLFHNTIYYNLLYGNISASPEEVYAVAKLAGLHDAILRMPHGYDTQVGERGLKLSGGEKQRVAIARAILKDPPVILYDEATSSLDSITEETILGAMKDVVKHRTSIFIAHRLSTVVDADEIIVLDQGKVAERGTHHGLLANPHSIYSEMWHTQSSRVQNHDNPKWEAKKENISKEEERKKLQEEIVNSVKGCGNCSC
B3: ABCB7 (Homo sapiens; E433D) (protein)
chain: HSAILIRPLVSVSGSGPQWRPHQLGALGTARAYQIPESLKSITWQRLGKGNSGQFLDAAKALQVWPLIEKRTCWHGHAGGGLHTDPKEGLKDVDTRKIIKAMLSYVWPKDRPDLRARVAISLGFLGGAKAMNIVVPFMFKYAVDSLNQMSGNMLNLSDAPNTVATMATAVLIGYGVSRAGAAFFNEVRNAVFGKVAQNSIRRIAKNVFLHLHNLDLGFHLSRQTGALSKAIDRGTRGISFVLSALVFNLLPIMFEVMLVSGVLYYKCGAQFALVTLGTLGTYTAFTVAVTRWRTRFRIEMNKADNDAGNAAIDSLLNYETVKYFNNERYEAQRYDGFLKTYETASLKSTSTLAMLNFGQSAIFSVGLTAIMVLASQGIVAGTLTVGDLVMVNGLLFQLSLPLNFLGTVYRDTRQALIDMNTLFTLLKVDTQIKDKVMASPLQITPQTATVAFDNVHFEYIEGQKVLSGISFEVPAGKKVAIVGGSGSGKSTIVRLLFRFYEPQKGSIYLAGQNIQDVSLESLRRAVGVVPQDAVLFHNTIYYNLLYGNISASPEEVYAVAKLAGLHDAILRMPHGYDTQVGERGLKLSGGEKQRVAIARAILKDPPVILYDEATSSLDSITEETILGAMKDVVKHRTSIFIAHRLSTVVDADEIIVLDQGKVAERGTHHGLLANPHSIYSEMWHTQSSRVQNHDNPKWEAKKENISKEEERKKLQEEIVNSVKGCGNCSC
B4: ABCB7 (Homo sapiens; E433K) (protein)
chain: HSAILIRPLVSVSGSGPQWRPHQLGALGTARAYQIPESLKSITWQRLGKGNSGQFLDAAKALQVWPLIEKRTCWHGHAGGGLHTDPKEGLKDVDTRKIIKAMLSYVWPKDRPDLRARVAISLGFLGGAKAMNIVVPFMFKYAVDSLNQMSGNMLNLSDAPNTVATMATAVLIGYGVSRAGAAFFNEVRNAVFGKVAQNSIRRIAKNVFLHLHNLDLGFHLSRQTGALSKAIDRGTRGISFVLSALVFNLLPIMFEVMLVSGVLYYKCGAQFALVTLGTLGTYTAFTVAVTRWRTRFRIEMNKADNDAGNAAIDSLLNYETVKYFNNERYEAQRYDGFLKTYETASLKSTSTLAMLNFGQSAIFSVGLTAIMVLASQGIVAGTLTVGDLVMVNGLLFQLSLPLNFLGTVYRKTRQALIDMNTLFTLLKVDTQIKDKVMASPLQITPQTATVAFDNVHFEYIEGQKVLSGISFEVPAGKKVAIVGGSGSGKSTIVRLLFRFYEPQKGSIYLAGQNIQDVSLESLRRAVGVVPQDAVLFHNTIYYNLLYGNISASPEEVYAVAKLAGLHDAILRMPHGYDTQVGERGLKLSGGEKQRVAIARAILKDPPVILYDEATSSLDSITEETILGAMKDVVKHRTSIFIAHRLSTVVDADEIIVLDQGKVAERGTHHGLLANPHSIYSEMWHTQSSRVQNHDNPKWEAKKENISKEEERKKLQEEIVNSVKGCGNCSC

Assays:
purified protein = substrate: Nc1ncnc2c1ncn2[C@@H]1O[C@H](COP(=O)(O)OP(=O)(O)OP(=O)(O)O)[C@@H](O)[C@H]1O; assay: purified protein; type: biochemical, Homo sapiens; details: Mg2+ nucleotide binding domain
[1] = substrate: Nc1ncnc2c1ncn2[C@@H]1O[C@H](COP(=O)(O)OP(=O)(O)OP(=O)(O)O)[C@@H](O)[C@H]1O; assay: Michaelis-Menten ATPase kinetics; type: biochemical, Homo sapiens; details: Mg2+ nucleotide binding domain

Row | Protein | Km (purified protein) [µM] | Vmax (purified protein) [µM/min] | Km [1] [µM] | Vmax [1] [µM/min]
1 | B1 | 5300 ± 1000 | 0.58 |  | 
2 | B2 |  |  | 710 ± 300 | 0.28
3 | B3 |  |  | 850 ± 280 | 0.35
4 | B4 |  |  | 490 ± 110 | 0.37
